Target: T1, RBP45d (Arabidopsis thaliana, UniProt Q8VXZ9 1-425)
T1 sequence: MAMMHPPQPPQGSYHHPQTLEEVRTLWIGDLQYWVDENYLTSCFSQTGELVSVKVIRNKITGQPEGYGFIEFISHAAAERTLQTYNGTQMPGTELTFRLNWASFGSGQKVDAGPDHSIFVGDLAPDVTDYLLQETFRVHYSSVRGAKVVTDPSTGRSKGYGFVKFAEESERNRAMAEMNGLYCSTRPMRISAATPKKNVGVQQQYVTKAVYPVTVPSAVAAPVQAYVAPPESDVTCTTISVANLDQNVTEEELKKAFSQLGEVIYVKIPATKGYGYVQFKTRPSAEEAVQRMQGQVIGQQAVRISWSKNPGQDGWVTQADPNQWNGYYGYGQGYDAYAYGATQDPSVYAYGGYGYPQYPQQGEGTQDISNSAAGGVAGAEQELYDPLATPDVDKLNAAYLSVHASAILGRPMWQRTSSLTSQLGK
Assay: EMSA

GUUUUGUUCGGUUUUGGUUUAGAUUUUUG (ssRNA) [Cy5-LPD1-IN2]
binding result: binds

— doi:10.1101/2022.08.12.503727
